Publication PMC4057782, “tRNA synthetase counteracts c-Myc to develop functional vasculature”

Legend:
SerRS [1] = biological target: T1, SerRS (Homo sapiens, UniProt P49591 1-514); experiment: EMSA; 5 mM Mg2+; EMSA: 20 mM Tris-HCl pH 8.0, 60 mM KCl, 5 mM MgCl2, 0.1 mg/ml BSA, 10 ng/ul poly(dG-dC), 1 mM DTT, 30 min, room temperature; SPR: 10 mM HEPES pH 7.4, 150 mM NaCl, 0.005% P-20; footprint: 20 mM HEPES pH 7.9, 120 mM KCl, 8 mM MgCl2, 0.2 mM EDTA, 0.5 mM DTT, 0.2 mg/ml BSA, 10 ug/ml poly(dG-dC), 5% glycerol, room temperature; settings: protein: recombinant; tags: C-terminal His tag (pET-20b); chain copies: 2; label: 5' 32P
MAX = MAX (Homo sapiens, UniProt P61244 1-160); experiment: EMSA; MAX/MAX homodimer, not displaced by SerRS; EMSA: 20 mM Tris-HCl pH 8.0, 60 mM KCl, 5 mM MgCl2, 0.1 mg/ml BSA, 10 ng/ul poly(dG-dC), 1 mM DTT, 30 min, room temperature; SPR: 10 mM HEPES pH 7.4, 150 mM NaCl, 0.005% P-20; footprint: 20 mM HEPES pH 7.9, 120 mM KCl, 8 mM MgCl2, 0.2 mM EDTA, 0.5 mM DTT, 0.2 mg/ml BSA, 10 ug/ml poly(dG-dC), 5% glycerol, room temperature; settings: protein: recombinant; tags: C-terminal His tag; chain copies: 2; label: 5' 32P
c-Myc;MAX = c-Myc;MAX (Homo sapiens;Homo sapiens, UniProt P01106;P61244 16-454;1-160, |); experiment: EMSA; competed off by SerRS at same concentrations; EMSA: 20 mM Tris-HCl pH 8.0, 60 mM KCl, 5 mM MgCl2, 0.1 mg/ml BSA, 10 ng/ul poly(dG-dC), 1 mM DTT, 30 min, room temperature; SPR: 10 mM HEPES pH 7.4, 150 mM NaCl, 0.005% P-20; footprint: 20 mM HEPES pH 7.9, 120 mM KCl, 8 mM MgCl2, 0.2 mM EDTA, 0.5 mM DTT, 0.2 mg/ml BSA, 10 ug/ml poly(dG-dC), 5% glycerol, room temperature; settings: protein: recombinant;recombinant; tags: C-terminal His tag;C-terminal His tag; label: 5' 32P
SerRS [2] = biological target: T1, SerRS; experiment: EMSA; interaction not affected; EMSA: 20 mM Tris-HCl pH 8.0, 60 mM KCl, 5 mM MgCl2, 0.1 mg/ml BSA, 10 ng/ul poly(dG-dC), 1 mM DTT, 30 min, room temperature; SPR: 10 mM HEPES pH 7.4, 150 mM NaCl, 0.005% P-20; footprint: 20 mM HEPES pH 7.9, 120 mM KCl, 8 mM MgCl2, 0.2 mM EDTA, 0.5 mM DTT, 0.2 mg/ml BSA, 10 ug/ml poly(dG-dC), 5% glycerol, room temperature; settings: protein: recombinant; tags: C-terminal His tag (pET-20b); chain copies: 2; label: 5' 32P
SerRS [3] = biological target: T1, SerRS; experiment: EMSA; minimal binding site; EMSA: 20 mM Tris-HCl pH 8.0, 60 mM KCl, 5 mM MgCl2, 0.1 mg/ml BSA, 10 ng/ul poly(dG-dC), 1 mM DTT, 30 min, room temperature; SPR: 10 mM HEPES pH 7.4, 150 mM NaCl, 0.005% P-20; footprint: 20 mM HEPES pH 7.9, 120 mM KCl, 8 mM MgCl2, 0.2 mM EDTA, 0.5 mM DTT, 0.2 mg/ml BSA, 10 ug/ml poly(dG-dC), 5% glycerol, room temperature; settings: protein: recombinant; tags: C-terminal His tag (pET-20b); chain copies: 2; label: 5' 32P
SerRS [4] = biological target: T1, SerRS; experiment: SPR; HBS-EP pH 7.4, 1:1 fit; EMSA: 20 mM Tris-HCl pH 8.0, 60 mM KCl, 5 mM MgCl2, 0.1 mg/ml BSA, 10 ng/ul poly(dG-dC), 1 mM DTT, 30 min, room temperature; SPR: 10 mM HEPES pH 7.4, 150 mM NaCl, 0.005% P-20; footprint: 20 mM HEPES pH 7.9, 120 mM KCl, 8 mM MgCl2, 0.2 mM EDTA, 0.5 mM DTT, 0.2 mg/ml BSA, 10 ug/ml poly(dG-dC), 5% glycerol, room temperature; settings: protein: recombinant; tags: C-terminal His tag (pET-20b); chain copies: 2; label: biotin; 3' overhang 3 nt on strand 1

T1 sequence (P49591 whole entry): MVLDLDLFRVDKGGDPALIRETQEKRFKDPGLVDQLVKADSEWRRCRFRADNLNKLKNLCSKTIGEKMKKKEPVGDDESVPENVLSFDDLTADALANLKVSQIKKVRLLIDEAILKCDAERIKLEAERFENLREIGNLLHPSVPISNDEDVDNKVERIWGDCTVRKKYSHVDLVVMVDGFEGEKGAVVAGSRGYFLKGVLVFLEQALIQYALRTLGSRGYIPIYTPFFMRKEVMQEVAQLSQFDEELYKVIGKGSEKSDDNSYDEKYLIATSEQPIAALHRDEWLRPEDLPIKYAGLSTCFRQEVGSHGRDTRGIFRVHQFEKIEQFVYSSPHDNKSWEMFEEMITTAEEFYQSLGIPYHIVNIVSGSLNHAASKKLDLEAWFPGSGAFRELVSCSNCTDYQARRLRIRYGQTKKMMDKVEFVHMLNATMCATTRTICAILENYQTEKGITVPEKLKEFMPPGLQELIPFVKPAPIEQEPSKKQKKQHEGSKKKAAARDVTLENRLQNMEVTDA
Chain of MAX (P61244 whole entry): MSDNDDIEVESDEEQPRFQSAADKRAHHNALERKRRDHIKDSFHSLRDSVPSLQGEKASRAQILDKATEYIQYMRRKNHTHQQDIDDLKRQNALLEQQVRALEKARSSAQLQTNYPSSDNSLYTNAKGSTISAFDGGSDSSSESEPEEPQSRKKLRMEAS
Chain of c-Myc;MAX (P01106 16-454, chain 1 of 2): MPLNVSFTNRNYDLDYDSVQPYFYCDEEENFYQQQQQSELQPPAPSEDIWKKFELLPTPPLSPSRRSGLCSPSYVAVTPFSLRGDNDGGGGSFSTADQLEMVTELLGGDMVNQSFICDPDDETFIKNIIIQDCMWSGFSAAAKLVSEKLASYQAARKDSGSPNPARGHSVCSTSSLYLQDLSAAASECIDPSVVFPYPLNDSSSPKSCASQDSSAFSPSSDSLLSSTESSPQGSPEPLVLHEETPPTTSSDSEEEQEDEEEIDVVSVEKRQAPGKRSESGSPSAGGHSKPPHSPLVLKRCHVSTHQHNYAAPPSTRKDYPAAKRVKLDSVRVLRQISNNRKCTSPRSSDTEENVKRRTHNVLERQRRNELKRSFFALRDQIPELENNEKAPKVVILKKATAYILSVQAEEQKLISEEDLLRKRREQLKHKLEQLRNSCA
Chain of c-Myc;MAX (P61244 whole entry, chain 2 of 2): as the sequence (P61244 whole entry) above

B1: VEGFA promoter 27-bp (-62 to -36) (dsDNA)
DNA 1: GGCGGGGCGGAGCCATGCGCCCCCCCC
DNA 2: GGGGGGGGCGCATGGCTCCGCCCCGCC
Question: With B1 as the binder, how does the Kd (SerRS [1]) read?
Answer: The Kd was 0.211 µM.

Question: Does B1 bind (MAX)?
Answer: Result: binds

Question: Does B1 bind (c-Myc;MAX)?
Answer: Result: binds

B2: 27-bp E-box double mutant CTTACG (dsDNA)
DNA 1: GGCGGGGCGGAGCCTTACGCCCCCCCC
DNA 2: GGGGGGGGCGTAAGGCTCCGCCCCGCC
Question: Does B2 bind (SerRS [2])?
Answer: Result: binds

B3: VEGFA minimal SerRS site (-59 to -38) (dsDNA)
DNA 1: GGGCGGAGCCATGCGCCCCCCC
DNA 2: GGGGGGGCGCATGGCTCCGCCC
Question: Does B3 bind (SerRS [3])?
Answer: Result: binds

B4: VEGFA promoter SPR duplex (dsDNA)
DNA 1: GGCGGGGCGGAGCCATGCGCCCCCCCCTTTATA
DNA 2: AAAGGGGGGGGCGCATGGCTCCGCCCCGCC
modifications: 3' biotin on strand 1
Question: Which Kd (SerRS [4]) does the source give for B4 here?
Answer: Its Kd is 0.265 µM.
